Results reported in paper PMC5081248.

Experiments:
[1] = target: Andes virus (ANDV) glycoprotein C, wild type, from virus-like particles (Andes virus strain Chi-7913); assay: sucrose gradient sedimentation
[2] = target: Puumala virus (PUUV) glycoprotein C ectodomain, soluble GC (residues 659-1106 of GPC) (Puumala virus P360 strain); assay: crystal structure

Substance	stoichiometry N [1]	stoichiometry N [2]
Andes virus (ANDV) glycoprotein C, wild type, from virus-like particles (natural protein)	3	
Puumala virus (PUUV) glycoprotein C ectodomain, soluble GC (residues 659-1106 of GPC) (domain or fragment)		3
